Patent publication US20180327500A1 (SYMPHOGEN A S, published 2018)
Blank lines part the entries; values can stand above or below the binder they belong to.

What was measured:
Mouse Blade 1-2 = biological target: T1, Mouse Blade 1-2; experiment: flow cytometry on transfected HEK293 cells;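 note: antibodies applied at 50 µg/ml, binding called specific when fluorescence exceeds the mean signal on a negative control chicken or mouse MET construct plus four SD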
T1 construct: human/mouse chimera on transfected HEK293 cells; also called AA 25-162
Protocol: Cut-off values defined as the average fluorescence signal of all antibodies tested at 50 μg/ml to the negative control chicken or mouse MET construct+four standard deviations were employed to discriminate background binding from specific binding for the domain exchange or blade exchange constructs.
T1 MET ECD-SV5-GPI fusion: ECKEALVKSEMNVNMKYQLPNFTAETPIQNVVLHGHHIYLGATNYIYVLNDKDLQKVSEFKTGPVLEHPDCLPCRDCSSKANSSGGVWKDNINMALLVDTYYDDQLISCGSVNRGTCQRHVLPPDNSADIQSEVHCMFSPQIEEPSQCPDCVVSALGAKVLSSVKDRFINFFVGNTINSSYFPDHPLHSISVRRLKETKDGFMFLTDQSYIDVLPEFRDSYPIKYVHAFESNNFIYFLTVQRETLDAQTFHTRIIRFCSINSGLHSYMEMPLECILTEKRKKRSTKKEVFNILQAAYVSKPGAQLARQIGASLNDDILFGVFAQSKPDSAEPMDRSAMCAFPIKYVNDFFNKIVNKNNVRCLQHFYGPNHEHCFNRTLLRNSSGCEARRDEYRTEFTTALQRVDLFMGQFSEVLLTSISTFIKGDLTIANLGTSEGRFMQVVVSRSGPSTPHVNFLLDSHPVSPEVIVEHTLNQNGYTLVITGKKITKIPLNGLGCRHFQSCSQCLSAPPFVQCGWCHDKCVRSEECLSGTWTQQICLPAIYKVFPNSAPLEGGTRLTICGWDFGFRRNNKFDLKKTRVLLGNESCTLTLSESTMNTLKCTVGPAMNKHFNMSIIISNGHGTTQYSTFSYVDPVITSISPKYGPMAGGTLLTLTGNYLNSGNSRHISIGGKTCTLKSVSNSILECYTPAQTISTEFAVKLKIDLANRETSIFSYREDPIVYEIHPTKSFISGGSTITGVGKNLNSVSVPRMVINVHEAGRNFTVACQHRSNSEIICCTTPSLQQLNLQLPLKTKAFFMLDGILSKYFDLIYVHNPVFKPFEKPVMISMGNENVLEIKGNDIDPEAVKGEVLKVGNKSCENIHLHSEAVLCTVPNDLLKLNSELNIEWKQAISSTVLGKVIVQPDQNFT

[1] = biological target: T2, His tagged human MET ECD (Sinobiological) (human, UniProt P08581 25-932); experiment: SPR (Bio-Rad XPR-36); antibody captured on anti-human IgG Fc surface, MET ECD 25 to 1.56 nM, 1:1 Langmuir fit
T2 construct: Bought monovalent antigen; also called human MET antigen; not shown: His tag

[2] = biological target: T2, His tagged human MET ECD …; experiment: BLI (Octet QK384); antibody captured on anti-human Fc sensors, monovalent MET ECD in solution, 1:1 Langmuir fit
Protocol: His tagged human or cynomolgus MET ECD antigens were purchased from Sinobiological, China. […] Measurements were conducted with a plate rotation speed of 1000 rpm and sensors were regenerated and reused by brief 5 second alternations between exposure to 10 mM Glycine:HCl buffer (pH 1.5) or PBS buffer containing 1% BSA and 0.001% Tween 20 three times. For the Surface Plasmon Resonance experiments conducted on the Bio-Rad XPR-36 instrument, anti-MET antibodies were adjusted to a concentration of 0.25-0.5 μg/ml and captured on anti-human IgG Fc surfaces generated by immobilizing a monoclonal anti-human Fc antibody (Biacore, Denmark). […] The recorded binding responses were fitted to a simple Langmuir 1:1 binding model for calculation of the on-rate (kon or ka), off-rate (koff or kd) and affinity (KD) constants using double referencing.

binding result (Mouse Blade 1-2): no binding (tested: 50 µg/ml)
B1: humanized antibody 9338 (antibody, human IgG1, kappa, V domains shown)
VH: QVQLVQSGAEVKKPGSSVKVSCKASGYTFTSYWMHWVRQAPGQGLEWMGYINPSSGHIENNQKFKDRVTITADKSTSTAYMELSSLRSEDTAVYYCARGRFAYWGQGTLVTVSS
VL: EIVLTQSPATLSLSPGERATLSCSASSSVSSGYLYWYQQKPGQAPRLLIYSTSNLASGIPARFSGSGSGTDFTLTISSLEPEDFAVYYCHQWSSYPFTFGSGTKLEIKR
notes: also called Hu9338; hu9338

Kd [1]: 0.055 nM | koff [1]: 1.1e-05 s⁻¹ | kon [1]: 190000 M⁻¹ s⁻¹ | Kd [2]: 1.2 nM | koff [2]: 7.6e-05 s⁻¹ | kon [2]: 62000 M⁻¹ s⁻¹
B2: humanized antibody 9006 (antibody, human IgG1, kappa, V domains shown)
VH: QVQLVQSGSELKKPGASVKVSCKASGYTFTNFRMNWVKQAPGQGLKWMGWINTYTGEPTYVDDLKGRFVFSLDTSVSTAYLQISSLKAEDTAVYYCARKGIARAMDYWGQGTTVTVSS
VL: DIVMTQSPDSLAVSLGERATINCKSSQSLLDSGNQKNYLAWYQQKPGQPPKLLIFGASTRESGVPDRFSGSGSGTDFTLTISSLQAEDVAVYYCQNDHSYPYTFGQGTKLEIKR
notes: also called Hu9006; hu9006
